Data published in the Human Domainome abundance scans (Beltran et al. 2025).
± gives the uncertainty stated by the source.

B1: E3 ubiquitin-protein ligase TRIM36, residues 208 to 252; numbered along this chain, Q9NQ86 (parent)
chain: KILMCPEHETERINMYCELCRRPVCHLCKLGGNHANHRVTTMSSA

Variants of: B1
Assay: abundance fitness (aPCA) (normalised: wild type 0, dead -1); higher = more abundant; growth selection in yeast, the domain comes from the species named
Conditions: Homo sapiens

Question: Which abundance fitness does the source give for KILMCPEHETERINMYCELPRRPVCHLCKLGGNHANHRVTTMSSA [C20P] here?
Answer: Its abundance fitness is -0.819 ± 0.059.

Question: With KILMCPEHETERINMYCELWRRPVCHLCKLGGNHANHRVTTMSSA [C20W] as the variant, how does the abundance fitness read?
Answer: The abundance fitness was -1.16 ± 0.082.

Question: Which abundance fitness does the source give for KILMCPEHETERINMYCELGRRPVCHLCKLGGNHANHRVTTMSSA [C20G] here?
Answer: Its abundance fitness is -0.595 ± 0.054.

Question: Which abundance fitness does the source give for KILMCPEHETERINMYCELSRRPVCHLCKLGGNHANHRVTTMSSA [C20S] here?
Answer: The abundance fitness was -0.679 ± 0.064.

Question: For KILMCPEHETERINMYCELQRRPVCHLCKLGGNHANHRVTTMSSA [C20Q], which abundance fitness is on record?
Answer: Its abundance fitness is -0.504 ± 0.055.

Question: Which abundance fitness does the source give for KILMCPEHETERINMYCELARRPVCHLCKLGGNHANHRVTTMSSA [C20A] here?
Answer: The abundance fitness was -0.652 ± 0.059.

Question: For KILMCPEHETERINMYCELMRRPVCHLCKLGGNHANHRVTTMSSA [C20M], which abundance fitness is on record?
Answer: Its abundance fitness is -0.534 ± 0.084.

Question: For KILMCPEHETERINMYCELRRRPVCHLCKLGGNHANHRVTTMSSA [C20R], which abundance fitness is on record?
Answer: The abundance fitness was -0.561 ± 0.05.

Question: For KILMCPEHETERINMYCELVRRPVCHLCKLGGNHANHRVTTMSSA [C20V], which abundance fitness is on record?
Answer: Its abundance fitness is -0.789 ± 0.059.

Question: For KILMCPEHETERINMYCEWCRRPVCHLCKLGGNHANHRVTTMSSA [L19W], which abundance fitness is on record?
Answer: Its abundance fitness is -0.088 ± 0.056.

Question: With KILMCPEHETERINMYCEPCRRPVCHLCKLGGNHANHRVTTMSSA [L19P] as the variant, how does the abundance fitness read?
Answer: Its abundance fitness is 0.029 ± 0.063.

Question: With KILMCPEHETERINMYCEDCRRPVCHLCKLGGNHANHRVTTMSSA [L19D] as the variant, how does the abundance fitness read?
Answer: The abundance fitness was 0.021 ± 0.077.

Question: Which abundance fitness does the source give for KILMCPEHETERINMYCEMCRRPVCHLCKLGGNHANHRVTTMSSA [L19M] here?
Answer: Its abundance fitness is 0.004 ± 0.07.

Question: With KILMCPEHETERINMYCEGCRRPVCHLCKLGGNHANHRVTTMSSA [L19G] as the variant, how does the abundance fitness read?
Answer: Its abundance fitness is 0.068 ± 0.047.

Question: Which abundance fitness does the source give for KILMCPEHETERINMYCERCRRPVCHLCKLGGNHANHRVTTMSSA [L19R] here?
Answer: The abundance fitness was 0.076 ± 0.049.

Question: With KILMCPEHETERINMYCECCRRPVCHLCKLGGNHANHRVTTMSSA [L19C] as the variant, how does the abundance fitness read?
Answer: The abundance fitness was 0.137 ± 0.067.

Question: With KILMCPEHETERINMYCESCRRPVCHLCKLGGNHANHRVTTMSSA [L19S] as the variant, how does the abundance fitness read?
Answer: The abundance fitness was 0.069 ± 0.058.

Question: With KILMCPEHETERINMYCEFCRRPVCHLCKLGGNHANHRVTTMSSA [L19F] as the variant, how does the abundance fitness read?
Answer: Its abundance fitness is -0.287 ± 0.18.

Question: For KILMCPEHETERINMYCEQCRRPVCHLCKLGGNHANHRVTTMSSA [L19Q], which abundance fitness is on record?
Answer: Its abundance fitness is 0.004 ± 0.067.

Question: Which abundance fitness does the source give for KILMCPEHETERINMYCENCRRPVCHLCKLGGNHANHRVTTMSSA [L19N] here?
Answer: Its abundance fitness is 0.169 ± 0.11.

Question: For KILMCPEHETERINMYCEVCRRPVCHLCKLGGNHANHRVTTMSSA [L19V], which abundance fitness is on record?
Answer: Its abundance fitness is 0.039 ± 0.061.

Question: Which abundance fitness does the source give for KILMCPEHETERINMYCEECRRPVCHLCKLGGNHANHRVTTMSSA [L19E] here?
Answer: The abundance fitness was 0.117 ± 0.057.

Question: With KILMCPEHETERINMYCEKCRRPVCHLCKLGGNHANHRVTTMSSA [L19K] as the variant, how does the abundance fitness read?
Answer: Its abundance fitness is 0.052 ± 0.063.

Question: For KILMCPEHETERINMYCEHCRRPVCHLCKLGGNHANHRVTTMSSA [L19H], which abundance fitness is on record?
Answer: The abundance fitness was 0.004 ± 0.13.

Question: For KILMCPEHETERINMYCEICRRPVCHLCKLGGNHANHRVTTMSSA [L19I], which abundance fitness is on record?
Answer: Its abundance fitness is 0.04 ± 0.08.

Question: With KILMCPEHETERINMYCELCQRPVCHLCKLGGNHANHRVTTMSSA [R21Q] as the variant, how does the abundance fitness read?
Answer: Its abundance fitness is -0.002 ± 0.11.

Question: With KILMCPEHETERINMYCELCWRPVCHLCKLGGNHANHRVTTMSSA [R21W] as the variant, how does the abundance fitness read?
Answer: Its abundance fitness is -0.416 ± 0.065.

Question: Which abundance fitness does the source give for KILMCPEHETERINMYCELCVRPVCHLCKLGGNHANHRVTTMSSA [R21V] here?
Answer: The abundance fitness was 0.01 ± 0.054.

Question: With KILMCPEHETERINMYCELCSRPVCHLCKLGGNHANHRVTTMSSA [R21S] as the variant, how does the abundance fitness read?
Answer: Its abundance fitness is -0.002 ± 0.051.

Question: Which abundance fitness does the source give for KILMCPEHETERINMYCELCERPVCHLCKLGGNHANHRVTTMSSA [R21E] here?
Answer: Its abundance fitness is 0.171 ± 0.083.

Question: Which abundance fitness does the source give for KILMCPEHETERINMYCELCLRPVCHLCKLGGNHANHRVTTMSSA [R21L] here?
Answer: The abundance fitness was -0.084 ± 0.052.

Question: Which abundance fitness does the source give for KILMCPEHETERINMYCELCDRPVCHLCKLGGNHANHRVTTMSSA [R21D] here?
Answer: Its abundance fitness is 0.067 ± 0.11.

Question: Which abundance fitness does the source give for KILMCPEHETERINMYCELCCRPVCHLCKLGGNHANHRVTTMSSA [R21C] here?
Answer: The abundance fitness was -0.083 ± 0.081.

Question: With KILMCPEHETERINMYCELCNRPVCHLCKLGGNHANHRVTTMSSA [R21N] as the variant, how does the abundance fitness read?
Answer: The abundance fitness was -0.121 ± 0.07.

Question: Which abundance fitness does the source give for KILMCPEHETERINMYCELCGRPVCHLCKLGGNHANHRVTTMSSA [R21G] here?
Answer: The abundance fitness was -0.116 ± 0.055.

Question: For KILMCPEHETERINMYCELCYRPVCHLCKLGGNHANHRVTTMSSA [R21Y], which abundance fitness is on record?
Answer: The abundance fitness was 0.027 ± 0.14.

Question: Which abundance fitness does the source give for KILMCPEHETERINMYCELCPRPVCHLCKLGGNHANHRVTTMSSA [R21P] here?
Answer: Its abundance fitness is -0.387 ± 0.088.

Question: For KILMCPEHETERINMYCELCKRPVCHLCKLGGNHANHRVTTMSSA [R21K], which abundance fitness is on record?
Answer: Its abundance fitness is 0.108 ± 0.071.

Question: For KILMCPEHETERINMYCELCTRPVCHLCKLGGNHANHRVTTMSSA [R21T], which abundance fitness is on record?
Answer: The abundance fitness was -0.061 ± 0.075.

Question: Which abundance fitness does the source give for KILMCPEHETERINMYCELCARPVCHLCKLGGNHANHRVTTMSSA [R21A] here?
Answer: Its abundance fitness is 0.002 ± 0.053.

Question: For KILMCPEHETERINMYCELCFRPVCHLCKLGGNHANHRVTTMSSA [R21F], which abundance fitness is on record?
Answer: Its abundance fitness is -0.425 ± 0.38.

Question: Which abundance fitness does the source give for KILMCPEHETERINMYCLLCRRPVCHLCKLGGNHANHRVTTMSSA [E18L] here?
Answer: The abundance fitness was -0.196 ± 0.052.

Question: For KILMCPEHETERINMYCDLCRRPVCHLCKLGGNHANHRVTTMSSA [E18D], which abundance fitness is on record?
Answer: The abundance fitness was 0.116 ± 0.083.

Question: With KILMCPEHETERINMYCCLCRRPVCHLCKLGGNHANHRVTTMSSA [E18C] as the variant, how does the abundance fitness read?
Answer: Its abundance fitness is -0.209 ± 0.083.

Question: Which abundance fitness does the source give for KILMCPEHETERINMYCGLCRRPVCHLCKLGGNHANHRVTTMSSA [E18G] here?
Answer: Its abundance fitness is -0.123 ± 0.058.

Question: Which abundance fitness does the source give for KILMCPEHETERINMYCVLCRRPVCHLCKLGGNHANHRVTTMSSA [E18V] here?
Answer: Its abundance fitness is -0.172 ± 0.069.

Question: For KILMCPEHETERINMYCKLCRRPVCHLCKLGGNHANHRVTTMSSA [E18K], which abundance fitness is on record?
Answer: Its abundance fitness is -0.172 ± 0.071.

Question: Which abundance fitness does the source give for KILMCPEHETERINMYCMLCRRPVCHLCKLGGNHANHRVTTMSSA [E18M] here?
Answer: Its abundance fitness is -0.178 ± 0.094.

Question: Which abundance fitness does the source give for KILMCPEHETERINMYCYLCRRPVCHLCKLGGNHANHRVTTMSSA [E18Y] here?
Answer: The abundance fitness was -0.416 ± 0.12.

Question: With KILMCPEHETERINMYCPLCRRPVCHLCKLGGNHANHRVTTMSSA [E18P] as the variant, how does the abundance fitness read?
Answer: Its abundance fitness is -0.269 ± 0.076.

Question: With KILMCPEHETERINMYCQLCRRPVCHLCKLGGNHANHRVTTMSSA [E18Q] as the variant, how does the abundance fitness read?
Answer: Its abundance fitness is -0.08 ± 0.073.

Question: With KILMCPEHETERINMYCTLCRRPVCHLCKLGGNHANHRVTTMSSA [E18T] as the variant, how does the abundance fitness read?
Answer: Its abundance fitness is -0.147 ± 0.06.

Question: With KILMCPEHETERINMYCRLCRRPVCHLCKLGGNHANHRVTTMSSA [E18R] as the variant, how does the abundance fitness read?
Answer: The abundance fitness was -0.385 ± 0.054.

Question: For KILMCPEHETERINMYCHLCRRPVCHLCKLGGNHANHRVTTMSSA [E18H], which abundance fitness is on record?
Answer: Its abundance fitness is -0.343 ± 0.1.

Question: With KILMCPEHETERINMYCNLCRRPVCHLCKLGGNHANHRVTTMSSA [E18N] as the variant, how does the abundance fitness read?
Answer: Its abundance fitness is -0.151 ± 0.082.

Question: Which abundance fitness does the source give for KILMCPEHETERINMYCSLCRRPVCHLCKLGGNHANHRVTTMSSA [E18S] here?
Answer: The abundance fitness was -0.148 ± 0.057.

Question: Which abundance fitness does the source give for KILMCPEHETERINMYCWLCRRPVCHLCKLGGNHANHRVTTMSSA [E18W] here?
Answer: Its abundance fitness is -0.236 ± 0.059.
